Results as given in patent publication EP1708961B1 (Abbott Biotherapeutics Corp., dated 2011).
Substitutions are numbered along the chain they refer to. Names and notes keep the numbering of the source. Values joined by “and” are separate entries in the source; they are usually repeats but may differ in a detail not shown here. Equal values may be shown once.

T1: recombinant human IP-10 (human, UniProt P02778 22-98)
T1 construct: Bought from R&D Systems; also called CXCL10; rhIP-10
T1 sequence: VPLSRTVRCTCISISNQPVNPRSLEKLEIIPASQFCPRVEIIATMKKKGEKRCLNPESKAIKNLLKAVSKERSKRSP

B1: murine monoclonal antibody AIP12 (antibody, V domains shown)
VH: QIQLVQSGPELKKPGETVKISCKASGYTFTDYSMHWVKQAPGKGLKWMGWINTETGEPTYADDFKGRFAFSLETSASTAYLQINNLKNEDTATYFCARNYDYDGYFDVWGAGTTVTVSS
VL: DIQMTQSPSSLSASLGGKVTITCKASQDINKYIAWYQHKPGKGPRLLIHYTSTLQPGIPSRFSGSGSGRDYSFSISNLEPEDIATYYCLQYDNLLFTFGSGTKLEIK
notes: Mouse hybridoma antibody; also called MuAIP12
B2: murine monoclonal antibody AIP13 (antibody, V domains shown)
VH: B1 VH with T55I, G104A
VL: B1 VL with S26D, K42R, I48L, Y50H, E81A, N93S
notes: Mouse hybridoma antibody; Mouse IgG1/kappa was used as its isotype control; also called MuAIP13
B3: HuAIP12 G104A variant antibody (antibody, human IgG1, V domains shown)
VH: EVQLVQSGAEVKKPGATVKISCKVSGYTFTDYSMHWVRQAPGKGLKWMGWINTETGEPTYADDFKGRFTFTLDTSTSTAYMELSSLRSEDTAVYYCARNYDYDAYFDVWGQGTTVTVSS
VL: DIQMTQSPSSLSASVGDRVTITCKASQDINKYIAWYQQKPGKAPKLLIHYTSTLQPGIPSRFSGSGSGRDYTFTISSLQPEDIATYYCLQYDNLLFTFGQGTKLEIK
notes: Human IgG1/kappa (gamma-1 and kappa expression vectors), transiently expressed in 293-H cells
B4: HuAIP12 T55I variant antibody (antibody, V domains shown)
VH: B3 VH with T55I, A104G
VL: B3 VL
B5: 12H+13L antibody (antibody, V domains shown)
VH: B3 VH with A104G
VL: B3 VL with S26D, I48L, Y50H, N93S
notes: HuAIP12 heavy chain with HuAIP13 light chain; human gamma-1/kappa
B6: humanized monoclonal antibody HuAIP13 (antibody, human IgG1, V domains shown)
VH: B3 VH with T55I
VL: B3 VL with S26D, I48L, Y50H, N93S
notes: Human IgG1/kappa
B7: humanized monoclonal antibody HuAIP12 (antibody, human IgG1, V domains shown)
VH: B3 VH with A104G
VL: B3 VL
notes: Human IgG1/kappa; also called unmodified HuAIP12; Wild Type
B8: 13H+12L antibody (antibody, V domains shown)
VH: B3 VH with T55I
VL: B3 VL
notes: HuAIP13 heavy chain with HuAIP12 light chain; human gamma-1/kappa

Assays:
recombinant human IP-10 [1] = target: T1, recombinant human IP-10; assay: competition ELISA on coated human IP-10, competitor: biotinylated MuAIP12; Exp. B
recombinant human IP-10 [2] = target: T1, recombinant human IP-10; assay: cell-based or functional assay
recombinant human IP-10 [3] = target: T1, recombinant human IP-10; assay: Biacore (SPR)
recombinant human IP-10 [4] = target: T1, recombinant human IP-10; assay: competition ELISA on coated human IP-10, competitor: biotinylated MuAIP12; Exp. A
recombinant human IP-10 [5] = target: T1, recombinant human IP-10; assay: competition ELISA on coated human IP-10, competitor: biotinylated MuAIP12; Exp. C
recombinant human IP-10 [6] = target: T1, recombinant human IP-10; assay: competition ELISA on coated human IP-10, competitor: biotinylated MuAIP12; average
recombinant human IP-10 [7] = target: T1, recombinant human IP-10; assay: competition ELISA on coated human IP-10, competitor: biotinylated MuAIP12; Exp. D
recombinant human IP-10 [8] = target: T1, recombinant human IP-10; assay: competition ELISA on coated human IP-10, competitor: biotinylated MuAIP13; Exp. A
recombinant human IP-10 [9] = target: T1, recombinant human IP-10; assay: competition ELISA on coated human IP-10, competitor: biotinylated MuAIP13; Exp. C
recombinant human IP-10 [10] = target: T1, recombinant human IP-10; assay: competition ELISA on coated human IP-10, competitor: biotinylated MuAIP13; average
recombinant human IP-10 [11] = target: T1, recombinant human IP-10; assay: competition ELISA on coated human IP-10, competitor: biotinylated MuAIP13; Exp. B
recombinant human IP-10 [12] = target: T1, recombinant human IP-10; assay: competition ELISA on human IP-10, competitor: AIP13
recombinant human IP-10 [13] = target: T1, recombinant human IP-10; assay: Biacore 2000 (SPR)
recombinant human IP-10 [14] = target: T1, recombinant human IP-10; assay: Biacore 2000 (SPR), antibody captured by goat anti-human IgG Fc, human IP-10 injected
recombinant human IP-10 [15] = target: T1, recombinant human IP-10; assay: competition ELISA on coated human IP-10; Exp. B
recombinant human IP-10 [16] = target: T1, recombinant human IP-10; assay: competition ELISA on coated human IP-10; Exp. A
recombinant human IP-10 [17] = target: T1, recombinant human IP-10; assay: cell-based or functional assay; remark: listed apart in the source
recombinant human IP-10 [18] = target: T1, recombinant human IP-10; assay: competition ELISA on coated human IP-10; average
recombinant human IP-10 [19] = target: T1, recombinant human IP-10; assay: competition ELISA on coated human IP-10; Exp. C
recombinant human IP-10 [20] = target: T1, recombinant human IP-10; assay: competition ELISA on coated human IP-10; average; remark: listed apart in the source
recombinant human IP-10 [21] = target: T1, recombinant human IP-10; assay: competition ELISA on coated human IP-10; Exp. C; remark: listed apart in the source
recombinant human IP-10 [22] = target: T1, recombinant human IP-10; assay: Biacore (Table 3)
recombinant human IP-10 [23] = target: T1, recombinant human IP-10; assay: competition ELISA on coated human IP-10; Exp. B; remark: listed apart in the source
recombinant human IP-10 [24] = target: T1, recombinant human IP-10; assay: competition ELISA on coated human IP-10; Exp. A; remark: listed apart in the source
recombinant human IP-10 [25] = target: T1, recombinant human IP-10; assay: competition ELISA on coated human IP-10; Exp. D

Binder	inhibition of chemotaxis (IC50%) on recombinant IP-10, donor 215 (recombinant human IP-10 [2]) [µg/mL]	inhibition of chemotaxis (IC50%) on recombinant IP-10, donor 318 (recombinant human IP-10 [2]) [µg/mL]	inhibition of chemotaxis (IC50%) on recombinant IP-10, donor 1012 (recombinant human IP-10 [2]) [µg/mL]	inhibition of chemotaxis (IC50%) on recombinant IP-10, mean of donors (recombinant human IP-10 [2]) [µg/mL]	Kd (recombinant human IP-10 [3]) [nM]	koff (recombinant human IP-10 [3]) [s⁻¹]	kon (recombinant human IP-10 [3]) [M⁻¹ s⁻¹]	IC50 (recombinant human IP-10 [12])	Kd (recombinant human IP-10 [14]) [nM]	koff (recombinant human IP-10 [14]) [s⁻¹]	kon (recombinant human IP-10 [14]) [M⁻¹ s⁻¹]	further results
B1	0.13	0.041	0.091	0.089	0.275	0.000282	1.05e+06					IC50 (recombinant human IP-10 [1]): 4.4 µg/mL; inhibition of chemotaxis (IC50%) on recombinant IP-10, donor 1022 (recombinant human IP-10 [2]): 0.135 µg/mL and 0.051 µg/mL and 0.086 µg/mL; IC50 (recombinant human IP-10 [4]): 6.5 µg/mL; IC50 (recombinant human IP-10 [5]): 6.6 µg/mL; IC50 (recombinant human IP-10 [6]): 5.4 µg/mL; IC50 (recombinant human IP-10 [7]): 4.2 µg/mL
B2	0.26	0.139	0.084	0.157	1.24	0.000196	158000					IC50 (recombinant human IP-10 [8]): 2.1 µg/mL; IC50 (recombinant human IP-10 [9]): 1.8 µg/mL; inhibition of chemotaxis (IC50%) on recombinant IP-10, donor 1022 (recombinant human IP-10 [2]): 0.229 µg/mL and 0.154 µg/mL and 0.078 µg/mL; IC50 (recombinant human IP-10 [10]): 2.1 µg/mL; IC50 (recombinant human IP-10 [11]): 2.4 µg/mL
B3								59.5 µg/mL	5.98	0.000784	131000	fold decrease in binding affinity against unmodified HuAIP12 (recombinant human IP-10 [12]): 14.5 fold; fold faster off-rate (kd) against unmodified HuAIP12 (recombinant human IP-10 [13]): ~2 fold; fold higher Kd against unmodified HuAIP12 (recombinant human IP-10 [13]): > 20 fold; fold slower on-rate (ka) against unmodified HuAIP12 (recombinant human IP-10 [13]): ~10 fold; fold weaker monovalent interaction against unmodified HuAIP12 (recombinant human IP-10 [13]): 20 fold
B4								1.6 µg/mL	0.0269	4.67e-05	1.66e+06	fold slower off-rate against unmodified HuAIP12 (recombinant human IP-10 [13]): ~9 fold; fold stronger affinity against unmodified HuAIP12 (recombinant human IP-10 [13]): > 9 fold
B5								3 µg/mL				
B6	0.139	0.045	0.077	0.086	1.24	0.000194	156000	9.2 µg/mL				fold difference of IC50 against MuAIP13 (recombinant human IP-10 [15]): 2.7 fold; fold difference of IC50 against MuAIP13 (recombinant human IP-10 [16]): 2.9 fold; IC50 (recombinant human IP-10 [8]): 6.1 µg/mL; IC50 (recombinant human IP-10 [9]): 4.8 µg/mL; IC50 of inhibition of IP-10 mediated chemotaxis (recombinant human IP-10 [17]): ~0.1 µg/mL; IC50 (recombinant human IP-10 [10]): 5.8 µg/mL; IC50 (recombinant human IP-10 [11]): 6.5 µg/mL; fold difference of IC50 against MuAIP13 (recombinant human IP-10 [18]): 2.8 fold; fold difference of IC50 against MuAIP13 (recombinant human IP-10 [19]): 2.7 fold
B7	0.142	0.038	0.073	0.086	0.472	0.000357	755000	3.1 µg/mL and 4.1 µg/mL	0.251	0.000381	1.55e+06	fold difference of IC50 against MuAIP12 (recombinant human IP-10 [20]): 2.5 fold; IC50 (recombinant human IP-10 [1]): 10.7 µg/mL; fold difference of IC50 against MuAIP12 (recombinant human IP-10 [21]): 2.2 fold; fold higher binding affinity than HuAIP13 (recombinant human IP-10 [22]): ~2.6 fold; fold difference of IC50 against MuAIP12 (recombinant human IP-10 [23]): 2.4 fold; IC50 of inhibition of IP-10 mediated chemotaxis (recombinant human IP-10 [17]): ~0.1 µg/mL; fold difference of IC50 against MuAIP12 (recombinant human IP-10 [24]): 2.9 fold; IC50 (recombinant human IP-10 [4]): 18.6 µg/mL; IC50 (recombinant human IP-10 [5]): 14.5 µg/mL; IC50 (recombinant human IP-10 [6]): 13.5 µg/mL; IC50 (recombinant human IP-10 [7]): 10.3 µg/mL; fold difference of IC50 against MuAIP12 (recombinant human IP-10 [25]): 2.4 fold
B8								13.6 µg/mL				
